Non-standard residues stand in square brackets, D forms with d. No end group written: not given here. pY = N[C@@H](Cc1ccc(OP(=O)(O)O)cc1)C(=O)O
B1: mNG-SHIP1 (FL, 1–1188 aa), full-length human Src homology 2 domain–containing inositol 5-phosphatase 1 (enzyme, UniProt Q92835-2 1-1188, looked up)
chain: MVPCWNHGNITRSKAEELLSRTGKDGSFLVRASESISRAYALCVLYRNCVYTYRILPNEDDKFTVQASEGVSMRFFTKLDQLIEFYKKENMGLVTHLQYPVPLEEEDTGDDPEEDTESVVSPPELPPRNIPLTASSCEAKEVPFSNENPRATETSRPSLSETLFQRLQSMDTSGLPEEHLKAIQDYLSTQLAQDSEFVKTGSSSLPHLKKLTTLLCKELYGEVIRTLPSLESLQRLFDQQLSPGLRPRPQVPGEANPINMVSKLSQLTSLLSSIEDKVKALLHEGPESPHRPSLIPPVTFEVKAESLGIPQKMQLKVDVESGKLIIKKSKDGSEDKFYSHKKILQLIKSQKFLNKLVILVETEKEKILRKEYVFADSKKREGFCQLLQQMKNKHSEQPEPDMITIFIGTWNMGNAPPPKKITSWFLSKGQGKTRDDSADYIPHDIYVIGTQEDPLSEKEWLEILKHSLQEITSVTFKTVAIHTLWNIRIVVLAKPEHENRISHICTDNVKTGIANTLGNKGAVGVSFMFNGTSLGFVNSHLTSGSEKKLRRNQNYMNILRFLALGDKKLSPFNITHRFTHLFWFGDLNYRVDLPTWEAETIIQKIKQQQYADLLSHDQLLTERREQKVFLHFEEEEITFAPTYRFERLTRDKYAYTKQKATGMKYNLPSWCDRVLWKSYPLVHVVCQSYGSTSDIMTSDHSPVFATFEAGVTSQFVSKNGPGTVDSQGQIEFLRCYATLKTKSQTKFYLEFHSSCLESFVKSQEGENEEGSEGELVVKFGETLPKLKPIISDPEYLLDQHILISIKSSDSDESYGEGCIALRLEATETQLPIYTPLTHHGELTGHFQGEIKLQTSQGKTREKLYDFVKTERDESSGPKTLKSLTSHDPMKQWEVTSRAPPCSGSSITEIINPNYMGVGPFGPPMPLHVKQTLSPDQQPTAWSYDQPPKDSPLGPCRGESPPTPPGQPPISPKKFLPSTANRGLPPRTQESRPSDLGKNAGDTLPQEDLPLTKPEMFENPLYGSLSSFPKPAPRKDQESPKMPRKEPPPCPEPGILSPSIVLTKAQEADRGEGPGKQVPAPRLRSFTCSSSAEGRAAGGDKSQGKPKTPVSSQAPVPAKRPIKPSRSEINQQTPPTPTPRPPLPVKSPAVLHLQHSKGRDYRDNTELPHHGKHRPEEGPPGPLGRTAMQ
B2: pY-ITIM, phosphotyrosine peptide from the immunoreceptor tyrosine inhibitory motif (ITIM) of the FcγRIIB receptor (peptide)
peptide: CKTEAENTIT[pY]SLIK
modifications: also: N-terminal Cys coupled to maleimide headgroup of MCC-PE lipid in membrane-conjugated experiments
notes: cysteine added to the N terminus for coupling to the maleimide lipid; the tyrosine is phosphorylated; Used in solution (100 μM) or conjugated to supported lipid bilayers with 2% MCC-PE; also called pY peptide; ITIM peptide; source: synthetic peptide (Elim Biopharmaceuticals)

Assays:
[1] = target: B2; assay: cell-based or functional assay
[2] = target: B1; assay: TIRF microscopy on supported lipid bilayers (bulk membrane recruitment); 5 nM mNG-SHIP1 construct in solution; pY-ITIM peptide covalently conjugated to maleimide lipid in the SLB (96% DOPC, 2% PI(3,4,5)P3, 2% MCC-PE); 23 °C; conditions: both partners purified

Row | Binder | lipid phosphatase activity of 20 nM FL SHIP1 on SLB (PI(3,4,5)P3 dephosphorylation, Grp1-AF647 sensor, reaction half time) with 100 μM pY-ITIM in solution [1] [fold] | binding result [2]
1 | B1 | ~5 | 
2 | B2 |  | binds
